Non-standard residues stand in square brackets, D forms with d. Cha = N[C@@H](CC1CCCCC1)C(=O)O
Key:
[1] = Peptide hydrogel preparation / self-assembly (gelation); type: physicochemical; settings: FIG. 1A
Procedure: Lyophilized peptides were dissolved in milliQ water and vortexed to get a homogenous solution. Subsequently, 10× phosphate buffered saline at the final concentration of 1× was added to the peptide solution and vortexed shortly. Gelation occurred within few seconds to minutes or hours depending on the peptide sequence.

[2] = Transmission electron microscopy (TEM) of peptide nanofibers; type: physicochemical; settings: TEM images (13 for IVFK, 10 for IVZK), distribution curve; IVZK shows three types of average diameter, 8.6 nm most abundant, 4.0 nm single monomer fiber
Procedure: The TEM studies were carried out on two different instruments; Tecnai G2 Spirit Twin with accelerating voltage of 120 kV and FEI Titan G2 80-300 CT with 300 kV emission gun. The Cryo TEM imaging was performed in low dose mode by using FEI's Titan Krios operating at 300 kV. The TEM samples for peptide nanofiber were prepared from diluted peptide hydrogel in water. One drop of this solution was then introduced on a carbon coated copper grid that has been treated with glow discharge plasma before being used. The drop was then kept for 10 minutes before being blotted using filter paper. To get a better contrast, the grid was stained using 2% uranyl acetate for 1 minute and then was dried for at least one day before imaging. The diameter of IVFK and IVZK peptide nanofibers were measured using an image-analysis software ImageJ from 13 and 10 TEM images, respectively. A size distribution histogram for each peptide nanofiber was created in Origin to calculate the average diameter of both peptides. See e.g. FIG. 1B.

Substance: Ac-IVOK-NH2 (Ac-IV[Cha]K-NH2; SMILES CC[C@H](C)[C@H](NC(C)=O)C(=O)N[C@H](C(=O)N[C@@H](CC1CCCCC1)C(=O)N[C@@H](CCCCN)C(N)=O)C(C)C) [IVZK, ultrashort self-assembling peptide; Z undefined, probably cyclohexylalanine]
- self-assembly into hydrogel [1]: self-assemble into macromolecular nanofibrous hydrogels

Substance: Ac-IVFK-NH2
- average fiber diameter [2]: 10.3 nm
- self-assembly into hydrogel [1]: self-assemble into macromolecular nanofibrous hydrogels

— US11472839B2, “Peptide capable of forming a gel for use in tissue engineering and bioprinting” (KING ABDULLAH UNIVERSITY OF SCIENCE AND TECHNOLOGY, priority 2017, dated 2022)
